Tests used:
AncSZ = assay: phosphorylation enrichment, bacterial display (enrichment ratio); higher = better substrate or ligand; peptides without Tyr show the background
EPHB1 = EPHB1 (UniProt P54762); assay: as above
EPHB2 = EPHB2 (UniProt P29323); assay: as above
FGFR1 = FGFR1 (UniProt P11362); assay: as above
FGFR3 = FGFR3 (UniProt P22607); assay: as above
Fer (mouse) = assay: as above
Fes = Fes (UniProt P07332); assay: as above
Fyn = Fyn (UniProt P06241); assay: as above
Hck = Hck (UniProt P08631); assay: as above
Jak2 = Jak2 (UniProt O60674); assay: as above
MERTK = MERTK (UniProt Q12866); assay: as above
c-Abl (mouse) = assay: as above
c-Src = assay: as above
Grb2 SH2 = Grb2 SH2 (UniProt P62993); assay: SH2 binding enrichment of the phosphorylated peptide, bacterial display (enrichment ratio); higher = better substrate or ligand; peptides without Tyr show the background
SHP2-C SH2 = assay: as above
c-Src SH2 = assay: as above
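For SH2 binding enrichment of the phosphorylated peptide, bacterial display in this document: peptide library displayed on the E. coli surface as eCPX fusions, selected cells deep-sequenced, score is each peptide's frequency after selection divided by its frequency in the input.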
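For phosphorylation enrichment, bacterial display in this document: 11-residue human phosphosite peptides and single-mutation variants displayed on the E. coli surface, counted by deep sequencing, each peptide's frequency after selection divided by its frequency in the unselected input library; frequency after pTyr selection over input frequency; kinase dosed for 20-30% of maximal phosphorylation in three min.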

FGFR1, sequence (P11362 whole entry, looked up): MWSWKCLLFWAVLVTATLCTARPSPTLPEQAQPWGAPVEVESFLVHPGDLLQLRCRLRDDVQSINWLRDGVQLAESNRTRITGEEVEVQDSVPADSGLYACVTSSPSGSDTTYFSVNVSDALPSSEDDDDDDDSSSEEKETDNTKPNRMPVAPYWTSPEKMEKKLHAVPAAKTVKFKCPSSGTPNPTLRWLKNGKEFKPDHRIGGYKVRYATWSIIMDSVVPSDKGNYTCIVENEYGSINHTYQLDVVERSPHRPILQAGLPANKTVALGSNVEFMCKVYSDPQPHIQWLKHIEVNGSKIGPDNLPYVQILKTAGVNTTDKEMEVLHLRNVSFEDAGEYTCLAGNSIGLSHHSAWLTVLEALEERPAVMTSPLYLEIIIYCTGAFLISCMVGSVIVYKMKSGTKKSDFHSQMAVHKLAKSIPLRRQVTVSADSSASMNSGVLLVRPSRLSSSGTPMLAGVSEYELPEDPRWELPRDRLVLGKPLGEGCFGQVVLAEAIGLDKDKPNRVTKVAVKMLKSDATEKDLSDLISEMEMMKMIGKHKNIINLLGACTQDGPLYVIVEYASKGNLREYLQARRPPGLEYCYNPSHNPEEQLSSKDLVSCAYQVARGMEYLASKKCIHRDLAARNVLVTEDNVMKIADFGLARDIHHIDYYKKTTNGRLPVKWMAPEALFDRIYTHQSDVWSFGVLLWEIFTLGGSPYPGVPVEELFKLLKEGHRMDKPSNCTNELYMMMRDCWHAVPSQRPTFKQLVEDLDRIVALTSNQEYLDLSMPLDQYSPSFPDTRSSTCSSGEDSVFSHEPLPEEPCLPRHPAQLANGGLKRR
MERTK, sequence (Q12866 whole entry, looked up): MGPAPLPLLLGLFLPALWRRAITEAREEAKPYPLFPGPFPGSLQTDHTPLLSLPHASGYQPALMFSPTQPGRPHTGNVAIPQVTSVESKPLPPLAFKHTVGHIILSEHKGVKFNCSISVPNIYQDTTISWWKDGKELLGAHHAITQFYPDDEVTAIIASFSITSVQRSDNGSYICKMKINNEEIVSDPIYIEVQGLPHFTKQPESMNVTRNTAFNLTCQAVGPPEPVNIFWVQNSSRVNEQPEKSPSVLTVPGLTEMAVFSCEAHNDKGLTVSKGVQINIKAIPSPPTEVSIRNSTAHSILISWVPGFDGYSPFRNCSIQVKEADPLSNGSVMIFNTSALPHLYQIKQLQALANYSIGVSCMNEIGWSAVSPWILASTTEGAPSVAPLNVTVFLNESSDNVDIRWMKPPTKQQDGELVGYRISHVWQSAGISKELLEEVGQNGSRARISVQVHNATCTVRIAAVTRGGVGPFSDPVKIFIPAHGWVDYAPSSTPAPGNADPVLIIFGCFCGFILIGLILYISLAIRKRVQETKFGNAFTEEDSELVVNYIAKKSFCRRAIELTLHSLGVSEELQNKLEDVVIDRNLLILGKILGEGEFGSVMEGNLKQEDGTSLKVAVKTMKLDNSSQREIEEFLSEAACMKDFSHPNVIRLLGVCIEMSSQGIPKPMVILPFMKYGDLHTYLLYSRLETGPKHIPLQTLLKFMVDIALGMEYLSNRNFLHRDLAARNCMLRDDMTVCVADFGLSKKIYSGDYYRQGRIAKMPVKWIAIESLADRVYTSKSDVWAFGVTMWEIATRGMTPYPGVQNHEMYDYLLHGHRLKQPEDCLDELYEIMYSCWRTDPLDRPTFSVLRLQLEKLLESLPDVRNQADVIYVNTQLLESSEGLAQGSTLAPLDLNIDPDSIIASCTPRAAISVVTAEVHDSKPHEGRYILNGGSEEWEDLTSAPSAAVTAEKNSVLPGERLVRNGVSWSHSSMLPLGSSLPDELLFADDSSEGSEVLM
Fyn, sequence (P06241 whole entry, looked up): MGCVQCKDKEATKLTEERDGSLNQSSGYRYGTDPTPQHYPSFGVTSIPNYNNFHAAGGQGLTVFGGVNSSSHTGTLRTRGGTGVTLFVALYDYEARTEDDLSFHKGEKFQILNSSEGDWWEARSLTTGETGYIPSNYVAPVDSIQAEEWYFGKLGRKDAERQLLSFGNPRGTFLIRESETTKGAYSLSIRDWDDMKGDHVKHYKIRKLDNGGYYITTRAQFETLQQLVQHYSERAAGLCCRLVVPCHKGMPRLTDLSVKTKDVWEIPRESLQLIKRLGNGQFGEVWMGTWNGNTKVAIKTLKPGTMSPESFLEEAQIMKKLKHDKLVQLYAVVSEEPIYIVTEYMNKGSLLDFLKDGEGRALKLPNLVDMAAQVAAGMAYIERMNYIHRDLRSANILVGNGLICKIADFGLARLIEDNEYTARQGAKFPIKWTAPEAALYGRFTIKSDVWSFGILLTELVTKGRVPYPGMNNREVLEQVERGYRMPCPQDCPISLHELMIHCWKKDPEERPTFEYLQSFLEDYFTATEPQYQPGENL
EPHB1, sequence (P54762 whole entry, looked up): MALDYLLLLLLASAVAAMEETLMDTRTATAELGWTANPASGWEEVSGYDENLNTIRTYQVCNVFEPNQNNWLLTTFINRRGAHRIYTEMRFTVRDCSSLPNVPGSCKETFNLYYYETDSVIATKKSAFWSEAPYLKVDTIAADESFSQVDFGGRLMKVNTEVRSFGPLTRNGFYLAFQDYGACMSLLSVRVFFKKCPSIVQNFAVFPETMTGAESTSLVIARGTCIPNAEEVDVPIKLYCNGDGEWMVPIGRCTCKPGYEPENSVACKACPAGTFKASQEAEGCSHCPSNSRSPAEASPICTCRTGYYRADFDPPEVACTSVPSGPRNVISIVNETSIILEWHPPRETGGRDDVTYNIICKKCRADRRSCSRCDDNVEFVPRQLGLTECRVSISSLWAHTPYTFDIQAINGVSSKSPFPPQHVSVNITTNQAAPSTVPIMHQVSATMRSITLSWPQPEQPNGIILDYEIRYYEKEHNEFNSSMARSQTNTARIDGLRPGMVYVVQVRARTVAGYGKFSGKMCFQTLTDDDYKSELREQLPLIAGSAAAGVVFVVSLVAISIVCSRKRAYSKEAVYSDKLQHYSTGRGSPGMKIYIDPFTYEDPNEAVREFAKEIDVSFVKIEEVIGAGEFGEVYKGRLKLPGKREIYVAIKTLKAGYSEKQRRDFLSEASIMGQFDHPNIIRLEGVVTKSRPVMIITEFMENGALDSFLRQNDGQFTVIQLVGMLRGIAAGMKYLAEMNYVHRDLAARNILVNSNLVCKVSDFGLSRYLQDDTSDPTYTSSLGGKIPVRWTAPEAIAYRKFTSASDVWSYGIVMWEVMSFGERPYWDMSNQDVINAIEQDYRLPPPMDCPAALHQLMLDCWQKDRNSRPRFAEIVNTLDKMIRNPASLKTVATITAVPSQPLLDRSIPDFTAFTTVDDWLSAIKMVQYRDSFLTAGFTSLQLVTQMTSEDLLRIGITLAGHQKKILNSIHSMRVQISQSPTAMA
FGFR3, sequence (P22607 whole entry, looked up): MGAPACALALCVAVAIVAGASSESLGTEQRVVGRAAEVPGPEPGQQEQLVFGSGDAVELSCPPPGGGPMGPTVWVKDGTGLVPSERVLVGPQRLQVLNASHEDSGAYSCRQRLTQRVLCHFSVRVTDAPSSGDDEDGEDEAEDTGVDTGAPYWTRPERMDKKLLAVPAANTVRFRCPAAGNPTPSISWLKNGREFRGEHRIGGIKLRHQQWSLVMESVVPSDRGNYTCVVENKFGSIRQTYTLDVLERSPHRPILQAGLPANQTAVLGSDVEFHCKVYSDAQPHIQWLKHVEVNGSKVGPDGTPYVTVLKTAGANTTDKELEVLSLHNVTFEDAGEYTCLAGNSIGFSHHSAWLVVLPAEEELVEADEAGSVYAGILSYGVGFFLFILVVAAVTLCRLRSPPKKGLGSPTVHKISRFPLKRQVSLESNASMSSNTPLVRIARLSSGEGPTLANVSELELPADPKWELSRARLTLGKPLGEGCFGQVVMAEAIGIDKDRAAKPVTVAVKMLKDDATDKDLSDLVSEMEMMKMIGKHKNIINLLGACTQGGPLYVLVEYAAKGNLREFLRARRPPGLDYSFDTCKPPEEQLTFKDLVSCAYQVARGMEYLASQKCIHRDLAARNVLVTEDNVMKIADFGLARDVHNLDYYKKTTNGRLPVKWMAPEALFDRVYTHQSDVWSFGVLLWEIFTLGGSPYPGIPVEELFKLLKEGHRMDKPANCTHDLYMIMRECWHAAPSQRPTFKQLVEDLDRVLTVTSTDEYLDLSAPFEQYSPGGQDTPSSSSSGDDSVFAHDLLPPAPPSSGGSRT
Fes, sequence (P07332 whole entry, looked up): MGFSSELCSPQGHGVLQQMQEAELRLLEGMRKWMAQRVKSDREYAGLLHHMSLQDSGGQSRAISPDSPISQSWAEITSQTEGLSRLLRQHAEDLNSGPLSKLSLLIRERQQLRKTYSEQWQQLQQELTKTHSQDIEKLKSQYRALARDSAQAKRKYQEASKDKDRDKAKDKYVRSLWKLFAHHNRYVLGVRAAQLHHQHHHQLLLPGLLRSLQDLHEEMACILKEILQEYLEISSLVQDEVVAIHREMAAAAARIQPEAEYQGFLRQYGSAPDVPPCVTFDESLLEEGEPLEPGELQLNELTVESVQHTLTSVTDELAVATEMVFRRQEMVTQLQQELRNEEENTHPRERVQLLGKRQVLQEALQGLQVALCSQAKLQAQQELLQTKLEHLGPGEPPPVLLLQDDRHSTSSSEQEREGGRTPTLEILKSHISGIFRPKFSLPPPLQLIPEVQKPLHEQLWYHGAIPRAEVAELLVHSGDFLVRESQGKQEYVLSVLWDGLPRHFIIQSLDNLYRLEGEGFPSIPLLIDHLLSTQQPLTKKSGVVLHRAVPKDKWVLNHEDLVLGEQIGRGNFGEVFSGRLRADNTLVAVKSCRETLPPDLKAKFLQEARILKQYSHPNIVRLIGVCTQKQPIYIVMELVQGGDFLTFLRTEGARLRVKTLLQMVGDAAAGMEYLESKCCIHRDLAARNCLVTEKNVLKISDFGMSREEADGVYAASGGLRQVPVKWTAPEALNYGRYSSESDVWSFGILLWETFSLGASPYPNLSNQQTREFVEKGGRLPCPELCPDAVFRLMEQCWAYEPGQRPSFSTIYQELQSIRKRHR

Row | Sequence | SH2 binding enrichment (Grb2 SH2) | SH2 binding enrichment (SHP2-C SH2) | SH2 binding enrichment (c-Src SH2) | phosphorylation enrichment (AncSZ) | phosphorylation enrichment (EPHB1) | phosphorylation enrichment (EPHB2) | phosphorylation enrichment (FGFR1) | phosphorylation enrichment (FGFR3) | phosphorylation enrichment (Fer (mouse)) | phosphorylation enrichment (Fes) | phosphorylation enrichment (Fyn) | phosphorylation enrichment (Hck) | phosphorylation enrichment (Jak2) | phosphorylation enrichment (MERTK) | phosphorylation enrichment (c-Abl (mouse)) | phosphorylation enrichment (c-Src)
1 | SREALYNEMDP [CACNA1A_Y794] | 0.913 | 0.489 | 1.28 | 1.41 | 0.735 | 0.693 | 0.692 | 0.896 | 0.731 | 1.24 | 0.685 | 0.834 | 1.14 | 2.36 | 0.852 | 0.869
2 | VKMLLYTEVTR [GDI1_Y93] | 0.869 | 0.706 | 0.771 | 1.32 | 3 | 1.25 | 0.529 | 0.883 | 1.08 | 1.43 | 0.759 | 1.24 | 1.23 | 2.58 | 0.83 | 0.834
3 | KGVDRYNPENL [EIF3K_Y21_I18V] | 0.643 | 0.592 | 0.465 | 0.502 | 0.35 | 0.648 | 0.308 | 0.372 | 0.311 | 0.466 | 0.415 | 0.437 | 0.428 | 0.402 | 0.392 | 0.397
4 | IVAEYYDNLPH [DEGS1_Y284_A280V] | 0.934 | 0.574 | 1.5 | 1.9 | 1.09 | 0.924 | 9.37 | 6.4 | 1.37 | 1.38 | 0.682 | 3.07 | 1.53 | 1.51 | 1.25 | 0.958
5 | ANVKWYRSGRE | 0.739 | 0.46 | 0.368 | 0.875 | 0.401 | 0.425 | 0.46 | 0.886 | 0.402 | 0.841 | 0.43 | 0.412 | 0.585 | 0.474 | 0.587 | 0.512
6 | SPRDTYSDRSG [CTPS1_Y567] | 0.76 | 0.503 | 0.479 | 0.494 | 0.298 | 0.473 | 0.382 | 0.438 | 0.369 | 0.572 | 0.443 | 0.507 | 0.521 | 0.322 | 0.608 | 0.375
7 | YPPDGYSRHCE [CTNND1_Y213_Y217C] | 0.9 | 0.666 | 0.693 | 0.883 | 0.461 | 0.487 | 0.496 | 0.568 | 0.514 | 0.941 | 0.585 | 0.555 | 0.816 | 0.505 | 0.738 | 0.462
8 | QTEGEYSSLEH [IDH3B_Y171] | 0.71 | 0.634 | 0.721 | 1.79 | 0.91 | 1.01 | 0.995 | 0.874 | 0.836 | 1.82 | 0.886 | 1.04 | 1.64 | 0.556 | 1.94 | 1.26
9 | LRIAVYHEILI [CREBBP_Y1450_T1447I] | 1.1 | 0.798 | 0.954 | 5.75 | 5.55 | 3.56 | 5.94 | 6.95 | 2.45 | 4.93 | 3.37 | 2.74 | 4.19 | 1.62 | 2.93 | 2.29
10 | DMDATYRPMYS [JUP_Y701] | 0.747 | 0.521 | 0.513 | 0.678 | 0.441 | 0.525 | 0.544 | 0.63 | 0.463 | 0.768 | 0.563 | 0.677 | 0.65 | 0.407 | 0.656 | 0.568
11 | EHTTLYSDNST [KANSL1_Y223_N225D] | 0.949 | 0.723 | 0.585 | 0.697 | 0.45 | 0.433 | 0.475 | 0.591 | 0.661 | 0.801 | 0.407 | 0.561 | 0.654 | 0.443 | 0.512 | 0.497
12 | LEIETDRRLLD [KRT12_Y429_Y429D] | 1 | 1.11 | 0.538 | 2.31 | 1.13 | 1.03 | 1.35 | 1.4 | 1.06 | 3.18 | 1.29 | 1.08 | 2.8 | 0.93 | 2.64 | 1.41
13 | DVELLYPVKEK [EPHX1_Y283] | 0.73 | 0.487 | 0.42 | 0.968 | 0.445 | 0.513 | 0.394 | 0.558 | 0.432 | 1.05 | 0.404 | 0.422 | 0.971 | 0.36 | 0.648 | 0.452
14 | FQLPFYNMVPS [BMPR1A_Y458_YF] | 0.952 | 0.652 | 1.97 | 0.788 | 0.65 | 0.773 | 1.21 | 0.936 | 1.45 | 0.811 | 1.05 | 1.07 | 0.666 | 2.69 | 0.582 | 1.06
15 | SRASFYRKGGC [ALK_Y1283_Y1278S_YF] | 0.674 | 0.548 | 0.433 | 0.702 | 0.431 | 0.467 | 0.381 | 0.496 | 0.476 | 0.627 | 0.433 | 0.477 | 0.615 | 0.567 | 0.529 | 0.575
16 | DRLASYPDKVR [KRT14_Y129_L130P] | 0.901 | 0.587 | 0.461 | 0.508 | 0.354 | 0.356 | 0.417 | 0.391 | 0.373 | 0.516 | 0.371 | 0.387 | 0.508 | 0.383 | 0.482 | 0.372
17 | IRTIDYRYTVS [IDS_Y497_W502S] | 0.73 | 0.823 | 0.69 | 0.789 | 0.437 | 0.666 | 0.593 | 0.601 | 0.45 | 1.13 | 0.558 | 0.532 | 0.713 | 0.411 | 0.46 | 0.385
18 | KKMKCYHVGKV [HARS2_Y151_R150C] | 1.35 | 0.954 | 1.12 | 0.579 | 0.444 | 0.431 | 0.395 | 0.552 | 0.356 | 0.723 | 0.317 | 0.383 | 0.588 | 0.423 | 0.627 | 0.408
19 | RVLQLYGCSPS [ASTL_Y279_K277Q] | 0.853 | 0.727 | 0.493 | 1.69 | 1.3 | 1.71 | 1.06 | 1.26 | 1.15 | 1.72 | 1.54 | 2.33 | 1.48 | 0.576 | 1.38 | 1.38
20 | GNHVSYYQSDG [CACNA1C_Y1757] | 0.806 | 0.802 | 0.902 | 0.774 | 0.557 | 0.485 | 0.718 | 0.81 | 0.49 | 0.762 | 0.462 | 0.57 | 0.667 | 0.81 | 0.621 | 0.574

Continued, in another order:

Row | SH2 binding enrichment (Grb2 SH2) | SH2 binding enrichment (SHP2-C SH2) | SH2 binding enrichment (c-Src SH2) | Sequence | phosphorylation enrichment (AncSZ) | phosphorylation enrichment (EPHB1) | phosphorylation enrichment (EPHB2) | phosphorylation enrichment (FGFR1) | phosphorylation enrichment (FGFR3) | phosphorylation enrichment (Fer (mouse)) | phosphorylation enrichment (Fes) | phosphorylation enrichment (Fyn) | phosphorylation enrichment (Hck) | phosphorylation enrichment (Jak2) | phosphorylation enrichment (MERTK) | phosphorylation enrichment (c-Abl (mouse)) | phosphorylation enrichment (c-Src)
21 | 0.816 | 0.69 | 0.561 | QDEPTYARSSK [PEAK1_Y616_H611Q] | 0.787 | 0.389 | 0.498 | 0.603 | 0.508 | 0.466 | 0.869 | 0.554 | 0.838 | 0.685 | 0.513 | 0.738 | 0.661
22 | 0.698 | 0.381 | 0.482 | RGKDSYETSQL [SPP1_Y225] | 0.681 | 0.552 | 0.529 | 0.632 | 0.697 | 0.594 | 0.913 | 0.484 | 0.412 | 0.643 | 0.5 | 0.313 | 0.449
23 | 0.884 | 0.647 | 0.408 | PLGKDYRKAEG [MAP1A_Y1909] | 0.68 | 0.512 | 0.532 | 0.691 | 0.787 | 0.655 | 0.941 | 0.72 | 0.945 | 0.378 | 0.589 | 0.505 | 0.456
24 | 0.76 | 0.904 | 0.405 | RMETAYGPSVT [MXRA5_Y2717_E2716A] | 0.635 | 0.413 | 0.46 | 0.448 | 0.529 | 0.617 | 0.718 | 0.467 | 0.63 | 0.661 | 0.444 | 0.511 | 0.646
25 | 0.702 | 0.391 | 0.481 | ASKEPYYVRCI [MYO1D_Y585] | 1.35 | 0.877 | 0.802 | 0.686 | 0.813 | 0.557 | 1.17 | 0.521 | 0.464 | 1.21 | 0.618 | 1.19 | 0.595
26 | 0.859 | 1.14 | 0.517 | ADRLEYSRTGL [MMUT_Y287_G284R] | 0.66 | 0.309 | 0.722 | 0.764 | 0.651 | 0.338 | 0.599 | 0.408 | 0.346 | 1.25 | 0.728 | 0.498 | 0.459
27 | 0.62 | 0.696 | 0.419 | AEYGLYGAMVW [VSX2_Y222_R227W] | 1.45 | 1.33 | 4 | 0.521 | 0.86 | 4.58 | 1.37 | 6.22 | 5.32 | 1.25 | 2.66 | 1.1 | 4.49
28 | 1.09 | 0.673 | 0.64 | ANVIRYFPTQA [SLC25A4_Y81] | 0.78 | 0.42 | 0.502 | 0.524 | 0.492 | 0.547 | 0.648 | 0.585 | 0.558 | 0.61 | 0.546 | 0.541 | 0.674
29 | 1.01 | 0.65 | 0.574 | INMKEYCKKDF [NTN1_Y490_K489E_YF] | 0.877 | 0.66 | 0.678 | 0.512 | 0.743 | 0.427 | 1.12 | 0.669 | 0.498 | 0.937 | 0.468 | 0.791 | 0.476
30 | 0.642 | 1.35 | 1 | HPFNSYTFPRL [PAK5_Y316_S312P_YF] | 1.3 | 0.683 | 0.64 | 0.531 | 0.786 | 0.461 | 0.957 | 1.19 | 0.474 | 0.995 | 1.41 | 1.05 | 0.602
31 | 1.03 | 0.838 | 0.593 | MANFMYKAGPS [MAML2_Y515_YF] | 0.947 | 0.367 | 0.525 | 0.378 | 0.44 | 0.386 | 0.68 | 0.383 | 0.39 | 0.739 | 0.339 | 0.534 | 0.41
32 | 0.784 | 2.83 | 6.05 | HNQDGYSFLSR [LDLR_Y845_P848L_YF] | 0.867 | 0.837 | 1 | 0.765 | 0.657 | 0.427 | 0.795 | 0.654 | 0.841 | 1.25 | 0.914 | 0.635 | 0.435
33 | 0.585 | 0.593 | 0.317 | PTEAQYRFIFM [PTPN11_Y511_Q506P_YF] | 1.6 | 0.876 | 0.767 | 1.9 | 1.21 | 1.06 | 1.81 | 0.939 | 1.07 | 1.44 | 0.702 | 1.32 | 0.477

— the supplement of paper PMC10065799, “High-throughput profiling of sequence recognition by tyrosine kinases and SH2 domains using bacterial peptide display” (eLife, 2023)
